Test results taken from the domain aggregation screens of Martell et al. (2025).

assay: soluble fraction after stress (log2 fold change); higher = more stays soluble; pooled small domains, quantitative proteomics; conditions: stress: 75 degC
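Further: 20 min heating vs room temperature control held 20 min.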

| Sequence | soluble fraction (log2) |
| --- | --- |
| HMDGPGDRLLIAIQENSMTQKKFAQLIGMSPNGLNSIIKGKKRLSRVLAIATERLTGVRADWILQNEQPK | -0.0913 |
| HMDGQPLSERQQEILRWVAEGLSNREIGERLNITPNTVRDHLSEVMRRLEVSNRTSAVSTAFHLGLLP | -0.0654 |
| HMDGRIRFRHAALHDPDVAARLHDYLTTSLPGVRSARVNSQTGSLLLEYDPEVLDRSTLLDLAARAESLL | -0.493 |
| HMDGRSLSHATLEEIRIRAVQRVEAGESPEVVVKALGFSRPRIYEWLALYREGGLEALRAKPV | -1.1 |
| HMDGSEYAGTVRLGDGTLQPVPRFETSNSETPKYLYLVMDVTHDPPVYILEHESAELKSVLGGLVLIGSYS | 0.0157 |
| HMDGTVRGKTTFQELLDWGVPQERIEAVLGGPIPAPGVVIKDYVTAQGKEFSAVRDALQAEVDAVLK | 0.144 |
| HMDGVLLDHLDGFVTTRRGVEAWLEQPTSFNKPSILLVAADGESTRRAIPSIAFGYDFASRHDIPAYDAG | -0.44 |
| HMDGVPPAGSRIRLTVSTQVGDKEFEGTLVPPAGVDLLTLKLANGYNLSHSIADVREVVLIEEGLQGEEP | -0.191 |
| HMDGVSLLFKLMETLPEQQKTILHLRDVEQLEFAEIAKITNTSQANVRVALSRARKKIKDLLLKQY | -2.52 |
| HMDGVYLKSLKQTEQHIHWSGYAQSNAWVSTLMRNLDASPWFESPLLIEIKAATINNSRSNEFDLNVRL | 0.0974 |
| HMDGYTVYTNWGSDTNVARSDQQIQSQIPQLSGATIVGVWTKPIATGGTSYKIRYRTNSGAFTEIDVDQ | -0.256 |
| HMDHKTKLQEVLQKSGDVFIEYRLIKEEGPAHERIFWIEVYVDDQLIGTGQGKSKKLAEQAAAENALAALE | -1.21 |
| HMDIEHREMKLQKLVITADSPLVGKTLKESNVRQRYNFMVVGVEEGQKNLTMINPNRRFEVGDIVWVVGEE | -0.743 |
| HMDIFGREAEVEQILQEVRFGDDPHYRLSIGILPVTGHAGAGKTALVRFIFHHEVARAEFTVRMWVHV | 0.154 |
| HMDIGKNIQTIRYANKLTQDQVIAKLNLMGISMSKSTYAKLETNRMNIKVSELVALAKIFHTDINAF | -2.62 |
| HMDIGTYTVTASALNIRQYPTASSAKTGSYPNGSIVTIYEYLTDGSWGRTDDGWISMNYVSRRY | -1.93 |
| HMDIHSEEYILGQNIRKYRLRLGWSQADLSNAVDIDRADISKYENGAKGIMSSTLLRKFAKALGVSMDALM | -3.32 |
| HMDILPRMVASEMRAVGVPPERMTREEKGTVIRNLMNAGIHQMKGAVVEIARQLHLSEPTVYRYIKREKG | -0.664 |
| HMDINMELGKNIRRLRKLNNLTQQSLANQMNRSKTLIALWEKGERDPSSIDLKRLSEIFNVRADDIIG | -0.799 |

| Sequence | soluble fraction (log2) |
| --- | --- |
| HMDIRMLLSDREEEIMILLSKGLSISEAANRMQIGQASAATYLNRARRKLKAETVRQAVAIWTGD | -1.87 |
| HMDISAFDTEFIISKFGGIRPMAQKLGVPVSTVQGWKQRQTIPQNRMGDILEAAKNYNLELTP | -0.112 |
| HMDISPAAKQRLALIQPLLEKNAEAITDRKLRNAVAKDIANNQNTTVRRVLRLYYRYLATGQVM | 0.192 |
| HMDIVIPIQVKNVSSGEVLDFPSIRAAARDLKFPKTTISLGVRYAGEKAYKGFVMRYRSDDPWPIVQES | -2 |
| HMDIYLDEVNRKILHLLSQGIKTRSLREYINLSMSAIEKRKKHMKELFLVEDGKDETLLNEARNKGF | -1.88 |
| HMDIYLTAFKTTSNQVTLNGIARSDLIISEFMRDIRDAKLFGEPVLQVIQNKNLNNVQARVFELVVPL | 0.115 |
| HMDKATMRWEQIEKFLETHPYIMNADVRALFNVSAATANRILATLTTEGKLVKYREGGHWAYKY | -1.1 |
| HMDKELILLWDRVKSKVWQMDIQDSQVANWFQRNYHLTVRLRDFDPPVPPDKFTAEQLASFIKDIERHT | -2.41 |
| HMDKGMQTMIDNLHKNTGKTLEEWIALVNRANFAKHGEVISFLKEKHGLTHGYANLVAHRLK | 0.863 |
| HMDKINQEAIEDEAGLWLAKIDGRQLAQEEVRELIAWMRRSDFHREYLITLARQWDGMAALNKLATLFP | -2.08 |
| HMDKLFNRQTLGGVELTQKQIEDLNAGKAIFVEGMQRKDGEVFSSYVKLDEATGRPSYTRYNPDSP | 0.933 |
| HMDKLSYALGLSMGHNFLGSGIKSLNVEDFAKGVEAVYKQEKPEISFDEAKKIINEFFSNLQDEIAE | -1.01 |
| HMDKNLQYADTPKGKLREYIKNLPNGSTVNRQKLAEEFGIKKQSMGTVTEVFQEFPDKNFKFVNP | -0.0476 |
| HMDKPVIEDVSFDDLAYMVGERVIIRTHLRSTRDGELKSFNRAGILVSLRNRPGMELEIPRSTVASAQVVW | -2.39 |
| HMDKQEKIHKKKIIILEALKRLLQNDVYSRITVQAVADEAGFSKGGLLHYFPTKEEMYIEFMEY | -0.103 |
| HMDKRYYYRILGLVGEPTRDQIEAAYETRIAKLRSSDYGDDPLYARRKISEVTMAYKVLTGS | -1.56 |
| HMDKSFLQSLHLIALGIVKNQMDPWELVNGWVEYYLKNKDKYIDHPNLKAVAVLKMKGLFIDHFRKS | -5.84 |
| HMDKSHYEELGVSRTATHAEIRRAYRHLMRTLHPDSNDGRVDAVRITKVNEAWNVLSQSSSRNAYDKSQV | -0.235 |
| HMDKTTIKNEQKKQILIFAEMNLFFKAKDVAELLGLQASRARYLLQELVKDGKIQGIGNNKGRKYQLI | -0.729 |
